Reference: paper PMC6238616

Legend:
[1] = molecular target: synaptotagmin binding cytoplasmic RNA interacting protein (SYNCRIP), wild type, LUMIER fusion; test: LUMIER; settings: read off a plot
[2] = molecular target: SMN1, wild type, LUMIER fusion (UniProt Q16637); test: LUMIER; settings: parent: est. 120000; read off a plot
SMN1, wild type, LUMIER fusion (UniProt Q16637), sequence (Q16637 whole entry, the tested form may be a part): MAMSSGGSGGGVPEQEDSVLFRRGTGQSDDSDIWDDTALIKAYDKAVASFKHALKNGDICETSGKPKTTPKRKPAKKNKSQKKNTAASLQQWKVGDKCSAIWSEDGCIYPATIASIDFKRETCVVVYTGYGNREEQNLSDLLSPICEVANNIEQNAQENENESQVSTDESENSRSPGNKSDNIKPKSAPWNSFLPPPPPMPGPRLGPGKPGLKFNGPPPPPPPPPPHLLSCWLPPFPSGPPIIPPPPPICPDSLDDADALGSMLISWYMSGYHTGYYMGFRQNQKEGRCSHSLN

SMN1, wild type, LUMIER fusion (from UniProt Q16637) SMN1 DD MT, sequence (Q16637 whole entry, change not shown, the tested form may be a part): as the sequence (Q16637 whole entry, the tested form may be a part) above

Row | response ([1]; parent: est. 180000) [RU] | response [2] [RU] | response ([1]; parent: est. 100000) [RU] | Substance
1 | 91000 |  |  | SMN1, wild type, LUMIER fusion (from UniProt Q16637) Y127L
2 | 110000 | 37000 |  | SMN1, wild type, LUMIER fusion (from UniProt Q16637) SMN1 DD MT
3 |  |  | 32000 | PHF1, wild type, LUMIER fusion (from UniProt O43189) Y47A
